Test results reported in patent US20060142189A1 (MOUNT SINAI SCHOOL OF MEDICINE OF NEW YORK UNIVERSITY, published 2006).
Ends that are not written are not given here. * marks the point of attachment. Biotin = O=C1N[C@H]2[C@H](CS[C@H]2CCCCC(=O)*)N1

Biological target: ankyrin B (endogenous in ND-7 cells)
Test: cell-based or functional assay

Binder: Biotin-RQIKIWFQNRRMKWKKQFNEDGSFIGQF [AP-YF peptide]
- velocity of L1-CAM directed movement on the cell surface, against cells treated with control peptide or untreated cells: 2 fold
